Data set [1] has as its target T1, MBP-ATPase/helicase fragment of human Dicer (Homo sapiens, UniProt Q9UPY3 SEQ:1-604).
T1 chain: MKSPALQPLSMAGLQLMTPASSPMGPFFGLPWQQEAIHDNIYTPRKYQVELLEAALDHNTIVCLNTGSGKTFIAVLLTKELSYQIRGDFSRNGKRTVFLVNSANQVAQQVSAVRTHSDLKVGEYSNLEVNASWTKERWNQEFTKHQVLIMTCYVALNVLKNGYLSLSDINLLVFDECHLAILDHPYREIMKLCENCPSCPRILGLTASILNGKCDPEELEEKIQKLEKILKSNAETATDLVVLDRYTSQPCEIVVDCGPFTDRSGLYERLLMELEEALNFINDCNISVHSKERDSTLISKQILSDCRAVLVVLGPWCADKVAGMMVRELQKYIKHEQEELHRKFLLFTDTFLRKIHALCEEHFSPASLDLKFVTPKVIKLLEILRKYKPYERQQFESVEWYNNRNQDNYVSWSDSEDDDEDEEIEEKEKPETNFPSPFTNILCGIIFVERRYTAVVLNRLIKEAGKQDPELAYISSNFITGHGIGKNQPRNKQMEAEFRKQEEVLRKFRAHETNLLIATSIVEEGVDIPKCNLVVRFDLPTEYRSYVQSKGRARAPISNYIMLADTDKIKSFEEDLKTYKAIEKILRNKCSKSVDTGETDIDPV
Nature of the data set: filter; out of detectable limit; 5 mM EDTA. Conditions: tags: His6-MBP N-terminal fusion (pHMGWA), E. coli; label: 5'-32P on one strand; siRNA duplex, 19 bp, Dicer product mimic. Here is the method: (§1) Filter binding assays of hDcr and different hDcr fragments were performed in the same way as previously described (7). Briefly, serial dilutions of hDcr protein were incubated in a buffer containing 20 mM Tris-HCl (pH 7.5), 25 mM NaCl, 5 mM EDTA, 1 mM dithiothreitol (DTT), 1% glycerol and ˜0.5-1 nM (1500 CPM) of 5′-end ³²P-labeled duplex RNA substrate (one strand was labeled) at room temperature for 60 min in a 30 μl of total volume. Following incubation, a 25 μl aliquot of each reaction was applied to a dot-blot apparatus equipped with three membranes: Tuffryn, Protran and Nytran (from top to bottom). After drying, the bound (on Protran) or free (on Nytran) RNAs were quantified by a Phosphorimager (GE Healthcare). Percent bound RNA, calculated as the ratio of radioactivity detected on the Protran membrane over the total input radioactivity, was plotted as a function of protein concentration. Kd was determined by global fitting to the equation: kobsd=(kₘₐₓ[…]) (Kd+[Dicer])−1, where kobsd is the observed rate constant at a given protein concentration, kₘₐₓ is the maximal rate constant with saturating protein, and Kd is the protein concentration that provides half the maximal rate. Curve fitting was conducted with KaleidaGraph (Synergy Software, Reading, Pa.). […]

Data set [2] has as its target T2, hDcr-CΔRBD fragment of human Dicer (Homo sapiens, UniProt Q9UPY3 SEQ:1235-1844).
T2 chain: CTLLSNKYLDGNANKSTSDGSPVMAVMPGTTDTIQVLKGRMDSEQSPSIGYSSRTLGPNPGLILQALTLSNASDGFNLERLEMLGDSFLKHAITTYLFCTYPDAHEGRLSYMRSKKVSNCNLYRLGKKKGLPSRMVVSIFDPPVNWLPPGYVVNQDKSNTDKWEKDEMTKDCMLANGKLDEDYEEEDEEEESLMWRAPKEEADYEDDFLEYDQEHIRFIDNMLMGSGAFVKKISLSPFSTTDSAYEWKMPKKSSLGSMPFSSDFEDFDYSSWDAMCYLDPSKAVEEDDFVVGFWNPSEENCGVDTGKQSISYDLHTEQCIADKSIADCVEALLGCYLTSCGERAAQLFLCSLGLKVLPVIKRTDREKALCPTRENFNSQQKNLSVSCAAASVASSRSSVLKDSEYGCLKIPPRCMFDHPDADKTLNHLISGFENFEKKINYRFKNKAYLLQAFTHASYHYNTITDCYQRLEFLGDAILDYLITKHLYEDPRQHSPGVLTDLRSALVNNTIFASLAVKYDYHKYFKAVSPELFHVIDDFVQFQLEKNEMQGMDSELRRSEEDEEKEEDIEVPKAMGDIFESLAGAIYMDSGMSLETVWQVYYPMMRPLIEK
The experiment in a line: filter; out of detectable limit. Conditions: tags: expressed from pHMGWA-His6-MBP vector, E. coli; label: 5'-32P on one strand; siRNA duplex, 19 bp, Dicer product mimic. Here is the method:
Filter binding assays of hDcr and different hDcr fragments were performed in the same way as previously described (7). Briefly, serial dilutions of hDcr protein were incubated in a buffer containing 20 mM Tris-HCl (pH 7.5), 25 mM NaCl, 5 mM EDTA, 1 mM dithiothreitol (DTT), 1% glycerol and ˜0.5-1 nM (1500 CPM) of 5′-end ³²P-labeled duplex RNA substrate (one strand was labeled) at room temperature for 60 min in a 30 μl of total volume. Following incubation, a 25 μl aliquot of each reaction was applied to a dot-blot apparatus equipped with three membranes: Tuffryn, Protran and Nytran (from top to bottom). After drying, the bound (on Protran) or free (on Nytran) RNAs were quantified by a Phosphorimager (GE Healthcare). Percent bound RNA, calculated as the ratio of radioactivity detected on the Protran membrane over the total input radioactivity, was plotted as a function of protein concentration. Kd was determined by global fitting to the equation: kobsd=(kₘₐₓ[…]) (Kd+[Dicer])−1, where kobsd is the observed rate constant at a given protein concentration, kₘₐₓ is the maximal rate constant with saturating protein, and Kd is the protein concentration that provides half the maximal rate. Curve fitting was conducted with KaleidaGraph (Synergy Software, Reading, Pa.).
To establish the relationship between cleavage activity and substrate binding, nitrocellulose filter-binding assays were performed with three kinds of RNAs under non-cleavage conditions: substrate dsRNA ([…]), Dicer product-mimic dsRNA (19-bp) and a pre-miRNA (pre-hlet-7a-1).

Data set [3] addresses T3, hDcr-C (RNase IIIa/IIIb-dsRBD) fragment of human Dicer (Homo sapiens, UniProt Q9UPY3 SEQ:1235-1922).
T3 chain: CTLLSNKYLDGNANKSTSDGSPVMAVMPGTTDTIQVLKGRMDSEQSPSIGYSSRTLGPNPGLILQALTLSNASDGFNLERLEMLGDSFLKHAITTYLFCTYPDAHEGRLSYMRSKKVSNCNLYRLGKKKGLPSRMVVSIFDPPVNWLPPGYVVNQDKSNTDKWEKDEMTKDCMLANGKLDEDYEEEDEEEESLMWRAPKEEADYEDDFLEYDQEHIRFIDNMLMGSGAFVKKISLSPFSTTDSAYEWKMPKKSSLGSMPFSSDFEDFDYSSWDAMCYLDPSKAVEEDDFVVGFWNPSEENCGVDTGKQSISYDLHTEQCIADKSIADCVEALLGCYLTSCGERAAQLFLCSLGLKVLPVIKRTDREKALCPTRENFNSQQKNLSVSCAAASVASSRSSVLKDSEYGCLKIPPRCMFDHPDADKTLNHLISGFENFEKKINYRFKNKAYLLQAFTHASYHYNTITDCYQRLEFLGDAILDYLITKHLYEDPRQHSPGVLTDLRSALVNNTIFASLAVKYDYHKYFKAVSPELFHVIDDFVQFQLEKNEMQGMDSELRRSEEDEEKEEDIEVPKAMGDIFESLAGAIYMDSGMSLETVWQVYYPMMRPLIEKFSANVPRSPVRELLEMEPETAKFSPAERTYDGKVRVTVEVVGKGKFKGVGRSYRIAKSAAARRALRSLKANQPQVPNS
The experiment in a line: filter; out of detectable limit; almost no binding. To be noted: tags: expressed from pHMGWA-His6-MBP vector, E. coli; label: 5'-32P on one strand; siRNA duplex, 19 bp, Dicer product mimic. Here is the method:
as §1

In data set [4] the target is T4, hDcr-C, C-terminal fragment of human Dicer (1235-1922), bacterially expressed (human, UniProt Q9UPY3 1235-1922).
T4 construct: Expressed in E. coli from the pHMGWA-His6-MBP destination vector via pENTR/TEV/D-TOPO
T4 sequence: T3 chain
Nature of the data set: size-exclusion chromatography after incubation without RNA. Here is the method:
To assess the role of the PAZ domain in determining Dicer cleavage product length, an attempt was made to express the PAZ domain alone in E. coli. Although this was unsuccessful, a construct including both the PAZ domain and the adjacent DUF283 region yielded soluble protein (hereafter the tandem construct named DP, FIG. 2A). […] To test for a direct protein-protein interaction, hDcr-C and DP polypeptides were incubated together in the absence of RNA and then analyzed by size exclusion chromatography.
DP forms a stable complex with hDcr-C. A pre-incubated mixture of the hDcr-C fragment with 3-fold excess of DP was analyzed with a Superdex 200 size-exclusion column (top panel, elution profile).
(In general: In gel filtration, larger molecules generally elute earlier.)

For data set [5], the target named is T5, hDcr-CΔRBD, hDcr-C lacking the C-terminal dsRBD (1235-1844), bacterially expressed (human, UniProt Q9UPY3 1235-1844).
T5 construct: also called hDcr-CARBD
T5 sequence: T2 chain
Nature of the data set: complex formation; method not detailed.

For data set [6], the target named is T6, MBP-ATPase/hel, ATPase/helicase domain of human Dicer (1-604) fused with maltose-binding protein, bacterially … (human, UniProt Q9UPY3 1-604).
T6 construct: not shown: the His6 tag and the linker/TEV site lette
T6 sequence: T1 chain
Nature of the data set: size exclusion and pull-down (brief figure description). Here is the method: Six microgram of both of hTRBP2 and mbp-ATPase/hel-HA proteins were mixed with 15 μl of anti-hemagglutinin (anti-HA) antibody-coupled agarose beads in 1× phosphate-buffered saline (PBS) buffer (Sigma, Saint Louis, Mo.) and incubated in cold room and rocked 60 min. The mixture was pelleted by 30 sec spin at 10,000×g and then washed once with 1×PBS and followed by 5 times with the washing buffer of 20 mM Hepes (pH 7.5), 250 mM NaCl, 1% glycerol and 0.1% Triton X-100. After the last wash, the pellet was boiled for 3 min in 1.2×SDS protein loading buffer. As a control, hTRBP2 alone was also processed in the same way.
ATPase/Helicase domain of hDcr interacts with TRBP. A. Schematic representation of bacterially expressed ATPase/hel domain tagged with MBP. B. The interaction of MBP-ATPase/hel fragment with hTRBP2. A pre-incubated mixture of the MBP-ATPase/hel fragment with 3-fold excess of hTRBP2 was fractionated with a Superdex 200 size-exclusion column (top panel, elution profile). […] The excess hTRBP2 elutes in the second peak. C. MBP-ATPase/hel can pull-down hTRBP2. The MBP-ATPase/hel-domain was purified with a C-terminal hemagglutinin (HA) epitope tag. The two purified proteins (30 pmol of hDcr and 130 pmol of hTRBP2) were incubated on ice with anti-HA antibody agarose beads (Sigma-Aldrich) for 60 min prior to several washes. The bound proteins are eluted via boiling with 1.2×SDS buffer. […]

B1: 21ab (dsRNA)
RNA 1: UAUACAAUGUGCUAGCUUUCU
RNA 2: AAAGCUAGCACAUUGUAUAGU
With B1, the binding result in data set [1], in data set [2] and in data set [3] was “no binding” each time.

B2: DP, tandem DUF283-PAZ domains of human Dicer (605-1068), bacterially expressed (other)
chain: MDDDDVFPPYVLRPDDGGPRVTINTAIGHINRYCARLPSDPFTHLAPKCRTRELPDGTFYSTLYLPINSPLRASIVGPPMSCVRLAERVVALICCEKLHKIGELDDHLMPVGKETVKYEEELDLHDEEETSVPGRPGSTKRRQCYPKAIPECLRDSYPRPDQPCYLYVIGMVLTTPLPDELNFRRRKLYPPEDTTRCFGILTAKPIPQIPHFPVYTRSGEVTISIELKKSGFMLSLQMLELITRLHQYIFSHILRLEKPALEFKPTDADSAYCVLPLNVVNDSSTLDIDFKFMEDIEKSEARIGIPSTKYTKETPFVFKLEDYQDAVIIPRYRNFDQPHRFYVADVYTDLTPLSKFPSPEYETFAEYYKTKYNLDLTNLNQPLLDVDHTSSRLNLLTPRHLNQKGKALPLSSAEKRKAKWESLQNKQILVPELCAIHPIPASLWRKAVCLPSILYRLHCLLTAE
notes: Expressed in E. coli from the pHMGWA-His6-MBP vector; also called middle domains of hDcr
For B2, the binding result in data set [4] and in data set [5] was “binds” in each case.

B3: human TAR-RNA binding protein (hTRBP2), recombinant (other, UniProt Q15633 1-366, looked up)
chain: MSEEEQGSGTTTGCGLPSIEQMLAANPGKTPISLLQEYGTRIGKTPVYDLLKAEGQAHQPNFTFRVTVGDTSCTGQGPSKKAAKHKAAEVALKHLKGGSMLEPALEDSSSFSPLDSSLPEDIPVFTAAAAATPVPSVVLTRSPPMELQPPVSPQQSECNPVGALQELVVQKGWRLPEYTVTQESGPAHRKEFTMTCRVERFIEIGSGTSKKLAKRNAAAKMLLRVHTVPLDARDGNEVEPDDDHFSIGVGSRLDGLRNRGPGCTWDSLRNSVGEKILSLRSCSLGSLGALGPACCRVLSELSEEQAFHVSYLDIEELSLSGLCQCLVELSTQPATVCHGSATTREAARGEAARRALQYLKIMAGSK
notes: Purified recombinant protein
On to B3, for which, in data set [6], the binding result is listed as “binds”.

Source of the values: US20130196383A1, “Method of Producing Dicer” (published 2013).
